Test results taken from US20260185070A1, “CRISPR-Cas Effector Polypeptides, Lipid Nanoparticles, and Methods of Use Thereof” (The Regents of the University of California, priority 2022, published 2026).

Experiments:
NPCs = experiment: NPC viability with LNPs containing different pegylated lipids; assay type: cell-based, mouse
From the text: Several pegylated lipids, commercial and synthetic, were examiner for their ability to encapsulate and deliver iGeoCas9 RNPs in LNPs (FIG. 48c). […] The reduced toxicity and enhanced delivery efficiency of these 3 PEGylated lipids stems from the pH-sensitive, acid-degradable acetal linker used in their synthesis (FIG. 49): the labile acetal linker could be cleaved in the late endosome stage of LNP delivery with a pH of 5-6, which frees the PEG moiety from the lipid molecules to reduce cytotoxicity and meanwhile destabilizes the endosome to promote the release of RNP into the cytosol. Further optimization of other parameters (e.g., mole and volume ratios of lipids to RNP, and salt concentration in the buffer, FIG. 50b) in LNP assembly established two sets of lipid formulations, i.e., standard formula (with DOTAP as the cationic lipid) and cationic formula (with ADC as the cationic lipid), which encapsulate GeoCas9 RNPs with good particle uniformity (diameter: 170-180 nm, PDI: 0.13-0.17) (FIG. 41b).

[1] = system: EGFP transgene in a model HEK293T cell line; experiment: EGFP-to-BFP HDR by LNP co-delivery of RNP and ssDNA template in HEK293T cells; assay type: cell-based, human; conditions: additive in RNP LNPs; in words
From the text: It was investigated if the co-delivery of iGeoCas9 RNPs and ssDNA templates in LNPs could switch EGFP to the blue fluorescent protein (BFP) in a model HEK293T cell line (FIG. 43b). In this cell assay, editing of the chromophore Thr-Tyr-Gly in the EGFP transgene followed by HDR to install a Ser/Thr-His-Gly chromophore turns EGFP into BFP. Four sgRNAs, rEGFP-R1 to R4, were designed to target the coding and non-coding strands in the chromophore region for editing. To avoid possible recutting events after the incorporation of the desired edits, four ssDNA HDR templates were designed to introduce GFP-to-BFP edits together with additional silent mutations in the DNA sequence. […] The HDR level was quantified to be between 20-40% by flow cytometry with 50-75% of non-homologous end-joining (NHEJ) indicated as EGFP knockdown (FIGS. 4b and 51).
LNP delivery: 4-6.5k cells/well were seeded in 96-well plates 48 hours prior to LNP treatment (HEK293 cells: 4-5k. NPCs: 5-6k, and 16HBEge cells: 6-6.5k). The culture media was refreshed 24 hours after LNP treatment. HEK293T cells were split after 2 additional days with a ratio of […] based on cell confluency. […]
Cell fluorescence was assayed on an Attune NxT acoustic focusing cytometer (Thermo Fisher Scientific) equipped with 554 nm excitation laser and 585/16 emission filter (tdTomato). […] Data were analyzed using Attune Cytometric Software v5.1.1.

ccdB toxin gene = experiment: bacterial dual-plasmid selection assay (Cas9 cleavage of ccdB plasmid, survival rate); assay type: cell-based, E. coli; conditions: for survival rate: sgRNA target sequence #6, PAM ggatGAAA
Method: A bacterial dual-plasmid selection system was employed for the directed evolution of GeoCas9, which has been successfully employed for engineering other CRISPR Cas effectors. […] To search for a reliable evolution starting point with minimal activity in the E. coli assay, 20 different sgRNAs that target the ccdB gene at the protospacers associated with different PAM sequences were screened (FIG. 46d) and selection under two sets of conditions was performed (37 C or 30 C for 1.5 hours). […] Libraries of GeoCas9 mutants were generated by targeting different domains of the protein for random mutagenesis (FIG. 46a) and then subjected to the selection system under the conditions at 30° C.
A chloramphenicol-resistant (CAM+) bacterial expression plasmid was built to have the insert gene of GeoCas9 together with its corresponding sgRNA that targets the ccdB gene in the selection plasmid with a PAM of GAAA (g6). Libraries of GeoCas9 mutants were generated by error-prone PCR to introduce random mutagenesis in three different regions (BH-Rec, RuvC-HNH-WED, and WED-PI). The error-prone PCR (with an error rate of 3- to 5-nucleotide mutations per kilobase) was carried out with the Taq DNA polymerase (New England BioLabs) in a reaction containing 2 μl of 10 mM primers, 1.5 μl of 10 mM MnCl2, 2 ng of template plasmid. The plasmid libraries were generated by ligating the mutated fragments with the remaining part of the plasmid through Gibson assembly. The plasmid libraries (-100 ng DNA after clean-up) were electroporated into 50 μl of electronically competent cells made from E. coli strain BW25141(DE3) that contains the selection plasmid encoding the arabinose-inducible ccdB toxin gene. After recovery of the electroporated bacteria in 750 μl of SOB for 1.5 hours at 30° C., the bacteria culture was concentrated; 1% of the total culture was plated onto a Petri agar dish containing only CAM (as control), and the remainder culture was plated on another Petri agar-dish containing both arabinose and CAM. […]

[2] = protein melting temperature, thermal shift assay; assay type: physicochemical
Method: Protein melting temperatures were measured using the thermal shift assay (GloMelt™, CAT #33021). The assay was performed on a quantitative PCR system with a temperature increase rate of 2° C./min. The protein melting temperatures were determined as the peak values in the derivative curves of the melting curves.

## DMG-PEG
NPCs
  toxicity / biocompatibility with NPCs: detrimental to NPC viability

## heparin
[1]
  effect of anionic polymer additive on editing levels: reduced editing

B1: GeoCas9: Geobacillus stearothermophilus CRISPR-Cas effector polypeptide, SEQ ID NO: 1; thermostable type II-C Cas9 (protein, listed as Geobacillus stearothermophilus)
chain: MRYKIGLDIGITSVGWAVMNLDIPRIEDLGVRIFDRAENPQTGESLALPRRLARSARRRLRRRKHRLERIRRLVIREGILTKEELDKLFEEKHEIDVWQLRVEALDRKLNNDELARVLLHLAKRRGFKSNRKSERSNKENSTMLKHIEENRAILSSYRTVGEMIVKDPKFALHKRNKGENYTNTIARDDLEREIRLIFSKQREFGNMSCTEEFENEYITIWASQRPVASKDDIEKKVGFCTFEPKEKRAPKATYTFQSFIAWEHINKLRLISPSGARGLTDEERRLLYEQAFQKNKITYHDIRTLLHLPDDTYFKGIVYDRGESRKQNENIRFLELDAYHQIRKAVDKVYGKGKSSSFLPIDFDTFGYALTLFKDDADIHSYLRNEYEQNGKRMPNLANKVYDNELIEELLNLSFTKFGHLSLKALRSILPYMEQGEVYSSACERAGYTFTGPKKKQKTMLLPNIPPIANPVVMRALTQARKVVNAIIKKYGSPVSIHIELARDLSQTFDERRKTKKEQDENRKKNETAIRQLMEYGLTLNPTGHDIVKFKLWSEQNGRCAYSLQPIEIERLLEPGYVEVDHVIPYSRSLDDSYTNKVLVLTRENREKGNRIPAEYLGVGTERWQQFETFVLTNKQFSKKKRDRLLRLHYDENEETEFKNRNLNDTRYISRFFANFIREHLKFAESDDKQKVYTVNGRVTAHLRSRWEFNKNREESDLHHAVDAVIVACTTPSDIAKVTAFYQRREQNKELAKKTEPHFPQPWPHFADELRARLSKHPKESIKALNLGNYDDQKLESLQPVFVSRMPKRSVTGAAHQETLRRYVGIDERSGKIQTVVKTKLSEIKLDASGHFPMYGKESDPRTYEAIRQRLLEHNNDPKKAFQEPLYKPKKNGEPGPVIRTVKIIDTKNQVIPLNDGKTVAYNSNIVRVDVFEKDGKYYCVPVYTMDIMKGILPNKAIEPNKPYSEWKEMTEDYTFRFSLYPNDLIRIELPREKTVKTAAGEEINVKDVFVYYKTIDSANGGLELISHDHRFSLRGVGSRTLKRFEKYQVDVLGNIYKVRGEKRVGLASSAHSKPGKTIRPLQSTRD
ccdB toxin gene; selection 30° C. for 1.5 hours
  survival rate: < 0.1%
ccdB toxin gene; selection 37 C for 1.5 hours
  survival rate: 2-5%
ccdB toxin gene; validation of selected mutant vs wild-type, temperature not stated
  survival in the bacterial assay: < 5%
[2]
  Tm (thermostability): 60 °C
